The record followed here is patent US20220396612A1 (UNIVERSIT DE TOURS, published 2022).

What all share (experiment): ELISA on denatured VLP (carbonate pH 10.6 + DTT; threshold OD>0.5)
Background: An ELISA detects its analyte on a solid surface through an enzyme-linked reagent.

The target in assay [1] is T1, denatured VLPs of BK polyomavirus VP-1 protein, serotype Ia (BK virus (BKPyV), serotype Ia, UniProt P03088 1-361).
T1 construct: also called Ia denatured; linearised VP-1 protein
T1 chain: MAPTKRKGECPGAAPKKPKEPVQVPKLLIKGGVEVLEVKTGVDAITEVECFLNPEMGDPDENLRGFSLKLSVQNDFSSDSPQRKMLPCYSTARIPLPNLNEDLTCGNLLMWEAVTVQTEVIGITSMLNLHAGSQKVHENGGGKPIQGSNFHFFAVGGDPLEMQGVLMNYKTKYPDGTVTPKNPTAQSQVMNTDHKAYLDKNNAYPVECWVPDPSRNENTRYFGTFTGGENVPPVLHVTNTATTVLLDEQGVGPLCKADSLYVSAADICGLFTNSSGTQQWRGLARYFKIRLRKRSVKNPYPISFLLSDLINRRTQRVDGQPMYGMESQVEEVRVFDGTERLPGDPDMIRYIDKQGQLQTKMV

Assay [2] concerns the target T2, denatured VLPs of BK polyomavirus VP-1 protein, serotype Ib2 (BK virus (BKPyV), serotype Ib2, UniProt P03088 1-362).
T2 construct: also called Ib2 denatured
T2 chain: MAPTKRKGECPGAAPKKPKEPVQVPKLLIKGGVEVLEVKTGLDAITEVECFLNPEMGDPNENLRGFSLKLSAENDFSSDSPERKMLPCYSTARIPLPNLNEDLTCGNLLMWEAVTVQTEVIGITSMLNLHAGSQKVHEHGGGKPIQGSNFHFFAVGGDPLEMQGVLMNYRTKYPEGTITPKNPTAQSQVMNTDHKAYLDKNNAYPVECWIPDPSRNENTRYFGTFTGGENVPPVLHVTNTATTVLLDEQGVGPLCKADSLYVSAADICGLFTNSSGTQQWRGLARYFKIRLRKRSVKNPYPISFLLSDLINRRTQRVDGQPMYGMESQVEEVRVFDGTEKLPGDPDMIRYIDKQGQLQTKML

The target of assay [3] is T3, denatured VLPs of BK polyomavirus VP-1 protein, serotype II (BK virus (BKPyV), serotype II, UniProt P14996 1-362).
T3 construct: also called II denatured
T3 chain: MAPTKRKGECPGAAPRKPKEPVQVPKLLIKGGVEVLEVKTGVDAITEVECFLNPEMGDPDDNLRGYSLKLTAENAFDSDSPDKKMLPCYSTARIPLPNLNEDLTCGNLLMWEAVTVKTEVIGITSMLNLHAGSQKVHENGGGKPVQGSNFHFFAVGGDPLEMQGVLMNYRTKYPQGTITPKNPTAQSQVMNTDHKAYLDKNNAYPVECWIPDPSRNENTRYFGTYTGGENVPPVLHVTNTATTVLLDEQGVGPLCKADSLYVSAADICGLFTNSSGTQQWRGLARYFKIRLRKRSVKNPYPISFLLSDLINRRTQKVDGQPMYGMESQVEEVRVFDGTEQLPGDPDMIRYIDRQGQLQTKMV

B1: monoclonal antibody ‘18A2’ derived from hybridoma 18A2 (antibody, V domains shown)
VH: DVQLQESGPGLVKPSQSLSLTCSVTGYSITSGYYWNWIRQFPGNKLEWMGYISYDGSNNYNPSLKNRISITRDTSKNQFFLKLNSVTTEDTATYYCARWEGTTDYWGQGTTLTVSS
VL: not shown
notes: Mouse hybridoma antibody
With B1, the “OD 492 nm” value was 3.98 OD in assay [1], 0.16 OD in assay [2] and 0.63 OD in assay [3].
